Results from the supplement of paper PMC7125110.
± gives the standard error. For some assays here: Variants at the floor of the assay were thinned out.

B1: glmS ribozyme (parent)
chain: AUAAAAGCGCCAGAACUACAGAAAUGUAGUUGACGAGGAGGAGGUUUAUCGAAUUUUCGGCGGAUGCCUCCAAA

What was measured:
Conditions in all cases: with glucosamine-6-phosphate
[1] = variants of: B1; assay: kcat; higher = faster cleavage; RNA array
In short: (§1)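 Barcoded ribozyme variants on sequenced MiSeq chips were transcribed in situ by E. coli RNA polymerase and followed at 37 °C through a hybridised Cy3 probe. Glucosamine-6-phosphate at 40 μM to 10 mM in HEPES/KCl/Mg(OAc)2 buffer was flowed in, and tiles were imaged over ~14 h. Signals were normalised to baseline and to non-cleaving reference variants, and per-tile medians were fit to one- or two-exponential decays to give kobs. Weighted Michaelis–Menten fits across concentrations gave kcat and KM.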

[2] = variants of: B1; assay: self-cleavage kobs at 40 uM GlcN6P; higher = faster cleavage; RNA array
In short: as §1

[3] = variants of: B1; assay: KM; higher = weaker cofactor use; RNA array
In short: as §1

[4] = variants of: B1; assay: self-cleavage kobs at 160 uM GlcN6P; higher = faster cleavage; RNA array
In short: as §1

[5] = variants of: B1; assay: self-cleavage kobs at 640 uM GlcN6P; higher = faster cleavage; RNA array
In short: as §1

[6] = variants of: B1; assay: self-cleavage kobs at 2500 uM GlcN6P; higher = faster cleavage; RNA array
In short: as §1

[7] = variants of: B1; assay: self-cleavage kobs at 10000 uM GlcN6P; higher = faster cleavage; RNA array
In short: as §1

Variant | kcat [1] [s⁻¹] | self-cleavage kobs at 40 uM GlcN6P [2] [s⁻¹] | KM [3] [µM] | self-cleavage kobs at 160 uM GlcN6P [4] [s⁻¹] | self-cleavage kobs at 640 uM GlcN6P [5] [s⁻¹] | self-cleavage kobs at 2500 uM GlcN6P [6] [s⁻¹] | self-cleavage kobs at 10000 uM GlcN6P [7] [s⁻¹]
A52C U55G | 5.71e-05 ± 5.1e-06 | < 1e-05 | – | – | – | – | –
A53C U55G | 0.00572 ± 0.0016 | 0.000162 ± 2.2e-05 | 1640 ± 730 | 0.000551 ± 9.1e-05 | 0.00138 ± 0.00025 | 0.00261 ± 0.00039 | 0.00667 ± 0.00076
C50U A53U | 5.88e-05 ± 7.9e-06 | < 1e-05 | 5390 ± 2000 | – | – | – | 3.82e-05 ± 8.6e-06
G51A G62A | < 1e-05 | < 1e-05 | – | – | – | – | –
C50G G66A | 4.08e-05 ± 1e-05 | – | – | 5.66e-05 ± 2.2e-05 | – | – | –
C50G C67U | 0.000113 ± 9.9e-06 | 9.57e-05 ± 8e-06 | – | 0.000129 ± 1.6e-05 | 0.000141 ± 1.7e-05 | 0.000126 ± 1.5e-05 | 0.000101 ± 7.4e-06
A53C C70U | 0.00487 ± 0.0012 | 0.000105 ± 1.2e-05 | 2220 ± 670 | 0.000315 ± 2.6e-05 | 0.000893 ± 0.00013 | 0.00403 ± 0.0007 | 0.00392 ± 0.00044
G51C U54C | < 1e-05 | – | – | – | < 1e-05 | < 1e-05 | –
A52G U56A | 0.00139 ± 0.00027 | – | 4470 ± 1300 | 6.31e-05 ± 1.3e-05 | 0.000166 ± 2.9e-05 | 0.000441 ± 7.1e-05 | 0.00102 ± 0.00014
A52U C70U | 0.00063 ± 0.0001 | – | 3490 ± 1100 | – | 0.000122 ± 2e-05 | 0.000228 ± 3.4e-05 | 0.000483 ± 4.7e-05
A52U C70A | 5.6e-05 ± 1.2e-05 | – | – | 3.06e-05 ± 1.5e-05 | 3.63e-05 ± 1.3e-05 | 8.32e-05 ± 1.6e-05 | 4.7e-05 ± 1e-05
A52U U65G | 9.59e-05 ± 1.1e-06 | < 1e-05 | 9460 ± 180 | < 1e-05 | – | – | 4.93e-05 ± 1.8e-05
A52U U55G | 0.000246 ± 4.9e-05 | – | 2150 ± 980 | – | 7.12e-05 ± 1.2e-05 | 0.000109 ± 1.5e-05 | 0.000221 ± 2.4e-05
A52G A64C C70A | 1.92e-05 ± 6.2e-06 | – | – | – | – | – | –
A52G G60U | < 1e-05 | – | – | < 1e-05 | < 1e-05 | – | –
C50U U69G C70U | 5.07e-05 ± 2.4e-05 | – | – | – | 8.65e-05 ± 3.1e-05 | – | –
C50U C61G C70U | 1.56e-05 ± 2.6e-06 | – | – | – | – | – | –
G51U G60C C70G | 1.22e-05 ± 2.5e-06 | < 1e-05 | – | – | – | – | –
G51A A53G | 1.13e-05 ± 5.2e-06 | – | – | – | – | – | –

Variant | kcat [1] [s⁻¹] | self-cleavage kobs at 40 uM GlcN6P [2] [s⁻¹] | KM [3] [µM] | self-cleavage kobs at 160 uM GlcN6P [4] [s⁻¹] | self-cleavage kobs at 640 uM GlcN6P [5] [s⁻¹] | self-cleavage kobs at 2500 uM GlcN6P [6] [s⁻¹] | self-cleavage kobs at 10000 uM GlcN6P [7] [s⁻¹]
G51A A53C | < 1e-05 | – | – | – | < 1e-05 | – | –
A53C U56G | 0.00299 ± 0.00066 | 7.77e-05 ± 1.1e-05 | 1830 ± 570 | 0.000166 ± 4.2e-05 | 0.000851 ± 0.00012 | 0.00165 ± 0.00035 | 0.00254 ± 0.00039
A52G G62A | 2.22e-05 ± 9.7e-06 | – | – | < 1e-05 | – | – | < 1e-05
C50U C71U | 5.37e-05 ± 8.4e-06 | – | – | – | – | 4.54e-05 ± 9.2e-06 | 4.57e-05 ± 1e-05
A52G A64G | 0.00183 ± 0.00049 | 2.83e-05 ± 7.3e-06 | 3690 ± 1500 | 6.03e-05 ± 9.6e-06 | 0.00036 ± 3.9e-05 | 0.000616 ± 0.0001 | 0.00136 ± 0.00013
C50U C67U | 2.42e-05 ± 5.8e-06 | – | – | – | – | 3.69e-05 ± 1.4e-05 | –
G51U U55G | < 1e-05 | – | 76.4 ± 18 | – | – | – | < 1e-05
A52U U69C | 0.000239 ± 2.7e-05 | – | 1990 ± 540 | – | 5.38e-05 ± 2.2e-05 | 0.000152 ± 3.9e-05 | 0.000191 ± 4.2e-05
A52U U54G | 0.000276 ± 3.6e-05 | – | 3750 ± 860 | – | 4.52e-05 ± 9.2e-06 | 0.000107 ± 1e-05 | 0.000207 ± 2.8e-05
G51U G60C | 1.97e-05 ± 5.9e-06 | – | – | – | – | – | –
C50U U54G | 2.58e-05 ± 7.2e-06 | – | – | – | – | 4e-05 ± 1.6e-05 | –
C50U U55A | 8.88e-05 ± 8.3e-06 | – | 2350 ± 570 | – | 2.43e-05 ± 9.1e-06 | 4.32e-05 ± 6.8e-06 | 7.37e-05 ± 9.9e-06
G51A C68G | 3.03e-05 ± 1.4e-05 | – | – | – | – | – | –
C50G G60C U69A | 8.12e-05 ± 2.6e-05 | – | – | 0.00016 ± 4.5e-05 | 0.00011 ± 2.1e-05 | 0.000146 ± 3.1e-05 | 4.94e-05 ± 1.4e-05
A53C G66U | 0.000484 ± 6.4e-05 | – | 1770 ± 450 | 3.36e-05 ± 1.5e-05 | 0.000128 ± 3.6e-05 | 0.000344 ± 8.3e-05 | 0.00039 ± 7.6e-05
A53C C68U | 9.65e-05 ± 7.1e-06 | – | 858 ± 310 | – | 3.67e-05 ± 7.7e-06 | 8.77e-05 ± 1e-05 | 8.67e-05 ± 5.3e-06
C50G U54C | 5.48e-05 ± 1.1e-05 | – | – | 5.92e-05 ± 2.5e-05 | – | 5.87e-05 ± 1.8e-05 | –
A52U A64G | 0.000348 ± 8.9e-05 | – | – | – | – | 0.00023 ± 3.8e-05 | 0.000262 ± 3.6e-05
A52U C68U | 0.000287 ± 4.1e-06 | – | 2080 ± 62 | 1.96e-05 ± 8.9e-06 | 6.72e-05 ± 8.8e-06 | 0.000158 ± 1.4e-05 | 0.000236 ± 2.4e-05
